From paper PMC6249037

Assays:
[1] = target: N15 TCRαβ heterodimer, TCRα R251L (mouse)
[2] = target: N15 TCRαβ heterodimer, WT TCRα (mouse) (UniProt P01849)
Chain of UniProt P01849 (P01849 whole entry, looked up, one chain of several): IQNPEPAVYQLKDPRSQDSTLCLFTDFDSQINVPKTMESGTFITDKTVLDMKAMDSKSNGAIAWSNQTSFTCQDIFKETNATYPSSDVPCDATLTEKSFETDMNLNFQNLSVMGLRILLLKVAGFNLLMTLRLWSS

VSV8K^b (vesicular stomatitis virus nucleoprotein octapeptide VSV8 bound to [change]^b) (peptide-MHC)
catch bond force maximum [1]: 10 pN | force maximum for catch-bond formation (CD3δ-SxxS cell line) [2]: 15 pN | maximal bond lifetime (catch bond; CD3δ-SxxS cell line) [2]: 8 s
